Results as given in the supplement of paper PMC12042874.
± gives the uncertainty stated by the source.

Test: amyloid nucleation score (Sup35N fusion, yeast selection) (log enrichment); library NNK3; higher = more nucleation; inactive = no reads after selection
Summary of the method: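 On medium lacking adenine and uracil, psi-negative yeast expressing peptides of 20 random codons fused to Sup35N were grown 7 days at 30°C after a 24-hour induction with 100 μM copper sulfate. Illumina sequencing of input and output plasmid inserts gave the reads, and sequences under 100 input reads were excluded. The nucleation score is the DiMSum log enrichment of output over input reads, centred on the mode score of non-aggregating sequences.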

**Q.** Which amyloid nucleation score does the source give for RSSSPIRVHTINGDVYTDVV here?
**A.** inactive

**Q.** For RSSVLLS, which amyloid nucleation score is on record?
**A.** inactive

**Q.** For RSTCCWIR, which amyloid nucleation score is on record?
**A.** inactive

**Q.** Which amyloid nucleation score does the source give for RSTFRRLLRCFGFWRRWSCI here?
**A.** inactive

**Q.** For RSTQRTLPQ, which amyloid nucleation score is on record?
**A.** inactive

**Q.** For RSTVYWFWRSSELLALRLHR, which amyloid nucleation score is on record?
**A.** inactive

**Q.** Which amyloid nucleation score does the source give for RSVATLYGLRSCFCLVCSKL here?
**A.** 1.41 ± 0.12

**Q.** Which amyloid nucleation score does the source give for RSVVRFWFFLINRHVYELSL here?
**A.** inactive

**Q.** With RSVYYRSLLGTNYCSFLLFD as the substance, how does the amyloid nucleation score read?
**A.** inactive

**Q.** Which amyloid nucleation score does the source give for RSYFYTCDSLDALHVHLASH here?
**A.** inactive

**Q.** For RSYLN, which amyloid nucleation score is on record?
**A.** inactive

**Q.** Which amyloid nucleation score does the source give for RTAWHMCLFCLNVTNLSWLM here?
**A.** 2.15 ± 0.052

**Q.** With RTDCV as the substance, how does the amyloid nucleation score read?
**A.** inactive

**Q.** For RTFFYWIKLAINFSNVCRGF, which amyloid nucleation score is on record?
**A.** inactive

**Q.** With RTFIKAKLP as the substance, how does the amyloid nucleation score read?
**A.** inactive

**Q.** For RTGEFMRGLMVGDSVKWVF, which amyloid nucleation score is on record?
**A.** inactive

**Q.** For RTIHVGWVMAIIGTALRCCM, which amyloid nucleation score is on record?
**A.** inactive

**Q.** For RTKIAFTRVLFATKLWNETN, which amyloid nucleation score is on record?
**A.** inactive

**Q.** With RTLVPGTHR as the substance, how does the amyloid nucleation score read?
**A.** inactive

**Q.** For RTLYMLRIALGHGPVTLEI, which amyloid nucleation score is on record?
**A.** inactive

**Q.** With RTLYSQNFK as the substance, how does the amyloid nucleation score read?
**A.** inactive

**Q.** Which amyloid nucleation score does the source give for RTMAFLIFS here?
**A.** 0.172 ± 0.56

**Q.** Which amyloid nucleation score does the source give for RTPVKGDRKSWTDRPISTAY here?
**A.** inactive

**Q.** For RTRKQRCHRCVWMLLGDYQR, which amyloid nucleation score is on record?
**A.** inactive

**Q.** For RTSAHGNYFSQLESLRKMML, which amyloid nucleation score is on record?
**A.** inactive

**Q.** With RTSYVNLLYIMLDLLIRFRS as the substance, how does the amyloid nucleation score read?
**A.** inactive

**Q.** Which amyloid nucleation score does the source give for RTWLGWEGNIIPSETGTYRS here?
**A.** inactive

**Q.** Which amyloid nucleation score does the source give for RVCSALCIRVLALFGCCSVE here?
**A.** 1.05 ± 0.19

**Q.** Which amyloid nucleation score does the source give for RVGRSR here?
**A.** -0.176 ± 1.4

**Q.** Which amyloid nucleation score does the source give for RVGTAF here?
**A.** -0.517 ± 0.84

**Q.** For RVGVACKCFIQCLYFVFISI, which amyloid nucleation score is on record?
**A.** inactive

**Q.** Which amyloid nucleation score does the source give for RVHFALYSV here?
**A.** 1.65 ± 0.062

**Q.** For RVHLGGMYRWVCEVNV, which amyloid nucleation score is on record?
**A.** inactive

**Q.** Which amyloid nucleation score does the source give for RVIDQMNPQGGWDLTFDSRR here?
**A.** inactive

**Q.** For RVLDNTSSCRERNVGGDSFA, which amyloid nucleation score is on record?
**A.** inactive

**Q.** For RVPACAYACLAYGGYDDMAG, which amyloid nucleation score is on record?
**A.** inactive

**Q.** With RVPYR as the substance, how does the amyloid nucleation score read?
**A.** inactive

**Q.** Which amyloid nucleation score does the source give for RVQMVLLMNTSFLNVLIMCI here?
**A.** -0.375 ± 1

**Q.** With RVSRAGMIMGPMLLFNKYFD as the substance, how does the amyloid nucleation score read?
**A.** inactive

**Q.** For RVVAFHIANDLLLSLKKS, which amyloid nucleation score is on record?
**A.** 1.39 ± 0.093

**Q.** Which amyloid nucleation score does the source give for RVVLHITGLLPSSKKGVRGE here?
**A.** 0.433 ± 0.25

**Q.** With RVVLMWDYLIDF as the substance, how does the amyloid nucleation score read?
**A.** 1.08 ± 0.16

**Q.** With RVVLTVFMFLIQSENACKLH as the substance, how does the amyloid nucleation score read?
**A.** inactive

**Q.** With RVVPMVTVGKIRKNLMD as the substance, how does the amyloid nucleation score read?
**A.** inactive

**Q.** For RVWRSNSPGAEKWTLLTKTL, which amyloid nucleation score is on record?
**A.** inactive

**Q.** Which amyloid nucleation score does the source give for RWCFCWICHYLDVLCHYCLH here?
**A.** inactive

**Q.** For RWCYLTEKKFSGLFNL, which amyloid nucleation score is on record?
**A.** inactive

**Q.** For RWNEAHITSYVYSRTSMWVF, which amyloid nucleation score is on record?
**A.** inactive

**Q.** For RWNMLIDVHLNVYHRQDRWC, which amyloid nucleation score is on record?
**A.** 0.636 ± 0.23

**Q.** With RWQRLSRHGISDSPLAREAA as the substance, how does the amyloid nucleation score read?
**A.** -0.917 ± 1.8

**Q.** With RWSVSSQTMLSIINDISFFG as the substance, how does the amyloid nucleation score read?
**A.** 0.099 ± 0.2

**Q.** With RWTLYSLSTYYQLCF as the substance, how does the amyloid nucleation score read?
**A.** 0.685 ± 0.12

**Q.** For RWVICEFGR, which amyloid nucleation score is on record?
**A.** inactive

**Q.** For RWVKSKFAV, which amyloid nucleation score is on record?
**A.** inactive

**Q.** Which amyloid nucleation score does the source give for RYCNAWLAGKSIFAPFVGTM here?
**A.** inactive

**Q.** For RYFSW, which amyloid nucleation score is on record?
**A.** inactive

**Q.** For RYGFADSYMLFLFRYTPSSG, which amyloid nucleation score is on record?
**A.** inactive

**Q.** For RYILRSL, which amyloid nucleation score is on record?
**A.** inactive

**Q.** With RYKRTGIWCFECNRVLVEVF as the substance, how does the amyloid nucleation score read?
**A.** inactive

**Q.** Which amyloid nucleation score does the source give for RYNWVYDFVLNRSSYWCW here?
**A.** inactive

**Q.** With RYRSGLDPFRCSYFNSPFYS as the substance, how does the amyloid nucleation score read?
**A.** inactive

**Q.** With RYSSNRLTLMWDCIEGGSAW as the substance, how does the amyloid nucleation score read?
**A.** 1.03 ± 0.14

**Q.** Which amyloid nucleation score does the source give for RYTFGTAIERVLQVILNEMT here?
**A.** inactive

**Q.** For RYVRCFLYTYKNFFD, which amyloid nucleation score is on record?
**A.** inactive

**Q.** With RYVSSLLSNLRGQKNCVSVL as the substance, how does the amyloid nucleation score read?
**A.** inactive

**Q.** For RYVTCNLEINTWDRVRGWHV, which amyloid nucleation score is on record?
**A.** 1.16 ± 0.16

**Q.** With RYYLGMHFINCMRVRVP as the substance, how does the amyloid nucleation score read?
**A.** inactive

**Q.** Which amyloid nucleation score does the source give for SAESKISIVWMEVRINNIFR here?
**A.** 1.67 ± 0.065

**Q.** With SAGMNMLYMYECKSSSMGFC as the substance, how does the amyloid nucleation score read?
**A.** inactive

**Q.** With SALPQH as the substance, how does the amyloid nucleation score read?
**A.** inactive

**Q.** For SALTIVVLFG, which amyloid nucleation score is on record?
**A.** 0.775 ± 0.2

**Q.** For SANGMSNRRYSDHHLYVVSA, which amyloid nucleation score is on record?
**A.** inactive

**Q.** Which amyloid nucleation score does the source give for SAPNYVRSSLFCN here?
**A.** inactive

**Q.** Which amyloid nucleation score does the source give for SASEKTDSNVVEFCVGRCI here?
**A.** inactive

**Q.** For SASLLN, which amyloid nucleation score is on record?
**A.** inactive

**Q.** For SAVVMRSQADSFDYLN, which amyloid nucleation score is on record?
**A.** inactive

**Q.** Which amyloid nucleation score does the source give for SAYAGYKRLGASEVILLSPY here?
**A.** inactive

**Q.** With SAYTNANGLNVSLFLMHHAC as the substance, how does the amyloid nucleation score read?
**A.** inactive

**Q.** Which amyloid nucleation score does the source give for SAYVLDGYMEISQILVIWSL here?
**A.** inactive

**Q.** Which amyloid nucleation score does the source give for SCAAPMIILTDKSCGRRGLG here?
**A.** inactive
